Where no end group is shown, it is not given here. The star is where a group is joined. TAMRA = 5-carboxytetramethylrhodamine, CN(C)c1ccc2c(-c3ccc(C(=O)*)cc3C(=O)[O-])c3ccc(=[N+](C)C)cc-3oc2c1
T1: A1 protein (mouse, residues 1-152, P104K C113S, used as wild type) (mouse)
T1 sequence (Q07440 1-152 with P104K C113S, looked up): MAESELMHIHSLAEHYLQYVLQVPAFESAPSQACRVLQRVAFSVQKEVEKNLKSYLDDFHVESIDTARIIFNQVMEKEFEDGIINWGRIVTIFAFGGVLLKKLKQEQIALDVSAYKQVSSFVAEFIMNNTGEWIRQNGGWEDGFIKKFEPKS

T2: MCL-1 (mouse, residues 152-308) (mouse)
T2 construct: remnant of thrombin cleavage at the N-terminus of MCL-1; MCL-1, mouse, residues 152-308, UniProt P97287; source: E. coli C41 pLysS, purified (Ni2+ agarose, thrombin cleavage, ion exchange, Superdex G75 gel filtration); not shown: His6, N-terminal, cleaved
T2 chain: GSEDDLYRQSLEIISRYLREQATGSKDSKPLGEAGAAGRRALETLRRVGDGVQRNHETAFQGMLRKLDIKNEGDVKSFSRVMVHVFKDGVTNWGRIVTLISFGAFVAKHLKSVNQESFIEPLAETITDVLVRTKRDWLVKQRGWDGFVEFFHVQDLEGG

B1: BID peptide (mouse, residues 76-110), TAMRA-labelled (peptide)
chain: {TAMRA}-SESQEEIIHNIARHLAQIGDEMDHNIQPTLVRQLA
notes: BID, mouse, residues 76-110, UniProt P70444; also called WT; source: synthetic peptide (Biomatik)
B2: BID I86A-M97A peptide, TAMRA-labelled (peptide, UniProt P70444 76-110, looked up)
chain: {TAMRA}-SESQEEIIHNAARHLAQIGDEADHNIQPTLVRQLA
notes: BID, mouse, residues 76-110, UniProt P70444; source: synthetic peptide (Biomatik)
B3: BID R88A peptide, TAMRA-labelled (peptide, UniProt P70444 76-110, looked up)
chain: {TAMRA}-SESQEEIIHNIAAHLAQIGDEMDHNIQPTLVRQLA
notes: as for B2
B4: BID R88G peptide, TAMRA-labelled (peptide, UniProt P70444 76-110, looked up)
chain: {TAMRA}-SESQEEIIHNIAGHLAQIGDEMDHNIQPTLVRQLA
notes: as for B2
B5: BID E96A peptide, TAMRA-labelled (peptide, UniProt P70444 76-110, looked up)
chain: {TAMRA}-SESQEEIIHNIARHLAQIGDAMDHNIQPTLVRQLA
notes: as for B2

These binders were tested against T1, A1 protein (mouse, residues 1-152, P104K C113S, used as wild type) (mouse) (assay: stopped-flow fluorescence kinetics + other: fluorescence dissociation kinetics with competitor; Kd calculated as the ratio koff/kon of the kinetic rate constants; 25 °C; 50 mM sodium phosphate, 0.05% (v/v) Tween 20, pH 7.0). Details: not given.

Row | Binder | Kd
1 | {TAMRA}-RVEEEEFAREIGAQLRRAADDLNAQYERRRQEEQH [PUMA W133F peptide (on the M144A wild type), TAMRA-labelled] | 0.475 nM
2 | {TAMRA}-RVEEEEWAREIGAQLRRAADALNAQYERRRQEEQH [PUMA D147A peptide (on the M144A wild type), TAMRA-labelled] | 0.051 nM
3 | {TAMRA}-RVEEEEWAREIGAQLRRAADGLNAQYERRRQEEQH [PUMA D147G peptide (on the M144A wild type), TAMRA-labelled] | 0.288 nM
4 | {TAMRA}-RVEEEGWAREIGAQLRRAADDLNAQYERRRQEEQH [PUMA E132G peptide (on the M144A wild type), TAMRA-labelled] | 0.102 nM
5 | {TAMRA}-RVEEEEWAREIGAQLRGAADDLNAQYERRRQEEQH [PUMA R143G peptide (on the M144A wild type), TAMRA-labelled] | 1.72 nM
6 | {TAMRA}-RVEEEEWAREIGAQLRRAADDLNAQYERRRQEEQH [PUMA peptide (mouse, residues 127-161, M144A, used as wild type), TAMRA-labelled] | 0.085 nM
7 | {TAMRA}-RVEEEEWAREAGAQLRRAADDLNAQYERRRQEEQH [PUMA I137A peptide (on the M144A wild type), TAMRA-labelled] | 3.7 nM
8 | {TAMRA}-RVEEEEWAREIGAQLRAAADDLNAQYERRRQEEQH [PUMA R143A peptide (on the M144A wild type), TAMRA-labelled] | 0.24 nM
9 | {TAMRA}-RVEEEEWAREIGAQLRRAADDLNAQYEGRRQEEQH [PUMA R154G peptide (on the M144A wild type), TAMRA-labelled] | 0.092 nM
10 | B1 | 0.019 nM
11 | B2 | 50 nM
12 | B3 | 0.16 nM
13 | B4 | 0.6 nM
14 | B5 | 0.015 nM

Target: T2, MCL-1 (mouse, residues 152-308)
Assay: as above
Details: both partners purified

Row | Binder | Kd
15 | B1 | 0.33 nM
16 | B2 | 390 nM
17 | B3 | 0.6 nM
18 | B4 | 1.8 nM
19 | B5 | 0.38 nM

These binders were tested against T1, A1 protein (mouse, residues 1-152, P104K C113S, used as wild type) (mouse) (assay: stopped-flow fluorescence kinetics; association; TAMRA-labelled peptide with folded partner at least 10-fold higher (pseudo-first-order); kon from the gradient of kobs versus partner concentration; 25 °C; 50 mM sodium phosphate, 0.05% (v/v) Tween 20, pH 7.0). Details: not given.

Row | Binder | kon
20 | {TAMRA}-RVEEEEFAREIGAQLRRAADDLNAQYERRRQEEQH [PUMA W133F peptide (on the M144A wild type), TAMRA-labelled] | 4.27e+06 M⁻¹ s⁻¹
21 | {TAMRA}-RVEEEEWAREIGAQLRRAADALNAQYERRRQEEQH [PUMA D147A peptide (on the M144A wild type), TAMRA-labelled] | 9.4e+06 M⁻¹ s⁻¹
22 | {TAMRA}-RVEEEEWAREIGAQLRRAADGLNAQYERRRQEEQH [PUMA D147G peptide (on the M144A wild type), TAMRA-labelled] | 6.76e+06 M⁻¹ s⁻¹
23 | {TAMRA}-RVEEEGWAREIGAQLRRAADDLNAQYERRRQEEQH [PUMA E132G peptide (on the M144A wild type), TAMRA-labelled] | 8.4e+06 M⁻¹ s⁻¹
24 | {TAMRA}-RVEEEEWAREIGAQLRGAADDLNAQYERRRQEEQH [PUMA R143G peptide (on the M144A wild type), TAMRA-labelled] | 3.03e+06 M⁻¹ s⁻¹
25 | {TAMRA}-RVEEEEWAREIGAQLRRAADDLNAQYERRRQEEQH [PUMA peptide (mouse, residues 127-161, M144A, used as wild type), TAMRA-labelled] | 5.9e+06 M⁻¹ s⁻¹
26 | {TAMRA}-RVEEEEWAREAGAQLRRAADDLNAQYERRRQEEQH [PUMA I137A peptide (on the M144A wild type), TAMRA-labelled] | 1.64e+06 M⁻¹ s⁻¹
27 | {TAMRA}-RVEEEEWAREIGAQLRAAADDLNAQYERRRQEEQH [PUMA R143A peptide (on the M144A wild type), TAMRA-labelled] | 3.67e+06 M⁻¹ s⁻¹
28 | {TAMRA}-RVEEEEWAREIGAQLRRAADDLNAQYEGRRQEEQH [PUMA R154G peptide (on the M144A wild type), TAMRA-labelled] | 4.79e+06 M⁻¹ s⁻¹
29 | B1 | 8.2e+06 M⁻¹ s⁻¹
30 | B2 | 2.2e+06 M⁻¹ s⁻¹
31 | B3 | 5.3e+06 M⁻¹ s⁻¹
32 | B4 | 4.9e+06 M⁻¹ s⁻¹
33 | B5 | 1e+07 M⁻¹ s⁻¹

Target: T2, MCL-1 (mouse, residues 152-308)
Assay: stopped-flow fluorescence kinetics; association; TAMRA-labelled peptide with folded partner at least 10-fold higher (pseudo-first-order); kon from the gradient of kobs versus partner concentration; 25 °C; 50 mM sodium phosphate, 0.05% (v/v) Tween 20, pH 7.0
Details: both partners purified
Procedure, shortened: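 TAMRA-labelled peptide was mixed with mouse MCL-1 (residues 152–308) by stopped-flow in 50 mM sodium phosphate, 0.05% (v/v) Tween 20, pH 7.0, at 25 °C, with the partner at least 10-fold in excess. Fluorescence was excited at 555 nm and collected above 570 nm. At least 15 traces were averaged, points before the 1 ms deadtime were discarded, and single-exponential fits yielded kobs. The association rate constant (kon) is the slope of kobs plotted against partner concentration.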

Row | Binder | kon
34 | B1 | 8.9e+06 M⁻¹ s⁻¹
35 | B2 | 3.5e+06 M⁻¹ s⁻¹
36 | B3 | 1e+07 M⁻¹ s⁻¹
37 | B4 | 8.3e+06 M⁻¹ s⁻¹
38 | B5 | 9.9e+06 M⁻¹ s⁻¹

The binders below were run against T1, A1 protein (mouse, residues 1-152, P104K C113S, used as wild type) (mouse) (assay: fluorescence dissociation kinetics with competitor; dissociation; preformed complex of TAMRA-labelled peptide and partner protein mixed with excess unlabeled PUMA peptide as competitor; stopped-flow or Cary Eclipse spectrophotometer; 25 °C; 50 mM sodium phosphate, 0.05% (v/v) Tween 20, pH …). Details: not given.

Row | Binder | koff
39 | {TAMRA}-RVEEEEFAREIGAQLRRAADDLNAQYERRRQEEQH [PUMA W133F peptide (on the M144A wild type), TAMRA-labelled] | 0.00203 s⁻¹
40 | {TAMRA}-RVEEEEWAREIGAQLRRAADALNAQYERRRQEEQH [PUMA D147A peptide (on the M144A wild type), TAMRA-labelled] | 0.00048 s⁻¹
41 | {TAMRA}-RVEEEEWAREIGAQLRRAADGLNAQYERRRQEEQH [PUMA D147G peptide (on the M144A wild type), TAMRA-labelled] | 0.00195 s⁻¹
42 | {TAMRA}-RVEEEGWAREIGAQLRRAADDLNAQYERRRQEEQH [PUMA E132G peptide (on the M144A wild type), TAMRA-labelled] | 0.00086 s⁻¹
43 | {TAMRA}-RVEEEEWAREIGAQLRGAADDLNAQYERRRQEEQH [PUMA R143G peptide (on the M144A wild type), TAMRA-labelled] | 0.0052 s⁻¹
44 | {TAMRA}-RVEEEEWAREIGAQLRRAADDLNAQYERRRQEEQH [PUMA peptide (mouse, residues 127-161, M144A, used as wild type), TAMRA-labelled] | 0.0005 s⁻¹
45 | {TAMRA}-RVEEEEWAREAGAQLRRAADDLNAQYERRRQEEQH [PUMA I137A peptide (on the M144A wild type), TAMRA-labelled] | 0.006 s⁻¹
46 | {TAMRA}-RVEEEEWAREIGAQLRAAADDLNAQYERRRQEEQH [PUMA R143A peptide (on the M144A wild type), TAMRA-labelled] | 0.00088 s⁻¹
47 | {TAMRA}-RVEEEEWAREIGAQLRRAADDLNAQYEGRRQEEQH [PUMA R154G peptide (on the M144A wild type), TAMRA-labelled] | 0.00044 s⁻¹
48 | B1 | 0.000155 s⁻¹
49 | B2 | 0.11 s⁻¹
50 | B3 | 0.00088 s⁻¹
51 | B4 | 0.00303 s⁻¹
52 | B5 | 0.000146 s⁻¹

Target: T2, MCL-1 (mouse, residues 152-308)
Assay: fluorescence dissociation kinetics with competitor; dissociation; preformed complex of TAMRA-labelled peptide and partner protein mixed with excess unlabeled PUMA peptide as competitor; stopped-flow or Cary Eclipse spectrophotometer; 25 °C; 50 mM sodium phosphate, 0.05% (v/v) Tween 20, pH 7.0
Details: both partners purified
Procedure, shortened: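 The dissociation rate constant comes from competitor displacement of a preformed complex of TAMRA-labelled peptide and mouse MCL-1 (residues 152–308), mixed with various concentrations of unlabelled competitor peptide. Runs were at 25 °C in 50 mM sodium phosphate, 0.05% (v/v) Tween 20, pH 7.0, read on stopped-flow (kobs > 0.03 s^−1) or Cary Eclipse (kobs < 0.03 s^−1). Fluorescence changes were fit to single exponentials. With sufficient competitor excess, concentration-independent kobs values were averaged as koff.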

Row | Binder | koff
53 | B1 | 0.003 s⁻¹
54 | B2 | 1.36 s⁻¹
55 | B3 | 0.0063 s⁻¹
56 | B4 | 0.015 s⁻¹
57 | B5 | 0.0038 s⁻¹

From publication PMC6016464, “Folding and binding pathways of BH3-only proteins are encoded within their intrinsically disordered sequence, not templated by partner proteins” (The Journal of Biological Chemistry, 2018)
